From paper PMC4045939 (2014)

T1: RSV M2 protein peptide on H-2Kd (mouse)
T1 peptide: SYIGSINNI

B1: TRBV13-2 (TCR)
alpha TRAV7-3*01 CDR3: CAVNSGYNKLTF
beta TRBV13-2*01 CDR3: CASGAGTGYAEQFF
B2: TRBV13-1 (TCR)
alpha TRAV12-2*01 CDR3: CALRNNNNAPRF
beta TRBV13-1*02 CDR3: CASSDGGKEVFF

Target: T1, RSV M2 protein peptide on H-2Kd
Experiment: in vitro CTL assay; CB6F1 splenocyte targets loaded with graded M2 peptide, E:T ratio of 50; EC50 from a 4-parameter non-linear fit; full-length, on cells

Binder | EC50 of peptide [nM]
B1 | 0.243
B2 | 0.0571
